Measured values reported in the RNAGym collection of RNA variant scans (doi:10.1073/pnas.2313332121).

B1: TPR t1 (parent)
chain: GACCAAUCUGCCCUCAGAGCUCGAGAACAUCUUCGGAUGCAGAGGAGGCAGGCUUCGGUGGCGCGAUAGCGCCAACGUCCUCAACCUCCAAUGCAUCCCACCACAUGAUGAUGCCUGAAGAGCCUUGGUUUUUUG

Variants of: B1
Assay: polymerase ribozyme fitness, log enrichment relative to wild type (log ratio); higher = more active; in vitro selection for triplet polymerase activity
Procedure, shortened: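 For each subunit of a heterodimeric triplet polymerase ribozyme, a mutant library was built by PCR and transcribed, then taken through a single in vitro selection round in triplicate. Selection involved annealing to a biotinylated primer, the partner subunit and triplets, incubation frozen at −7 °C, gel excision of extended constructs, capture on streptavidin beads and RT-PCR. Genotypes were retained after Illumina sequencing of inputs and outputs only with ≥10 input reads and ≥1 read in each output. Fitness is defined as the logarithm of a genotype's enrichment relative to wild-type enrichment, using inverse-variance-weighted averages across replicates, with the logarithm taken to base 2.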

Going from G52C G69U C97A to G52C G69U C99U, the “polymerase ribozyme fitness (log ratio)” value rises from -2.26 to -1.34.

Compared with G52C G71U U132A, G52C G113A C124U is lower in “polymerase ribozyme fitness (log ratio)” value: -0.43 for the first, -1.69 for the second.

First: G52C U55C U78C C82U
Second: G52C U116A G120A
The “polymerase ribozyme fitness (log ratio)” value of the first is higher: -0.756 for the first, -2.46 for the second.

G52C U125G and G52C U129C are within 0.2 log units of each other in “polymerase ribozyme fitness (log ratio)” value: -1.59 for the first, -1.64 for the second.

Going from G52U to G52U A66U, the “polymerase ribozyme fitness (log ratio)” value falls from -0.82 to -1.95.

Compared with G52U C53A C73U, G52U C56A C99U is lower in “polymerase ribozyme fitness (log ratio)” value: -1.08 for the first, -4.58 for the second.

Going from G52U C56G C89U to G52U C64U U116C, the “polymerase ribozyme fitness (log ratio)” value falls from -1.53 to -2.49.

G52U C72G C79A G110A C123A and G52U C72U C104A G127C are within 0.2 log units of each other in “polymerase ribozyme fitness (log ratio)” value: -3.69 for the first, -3.82 for the second.

Compared with G52U C73G A84U, G52U C76G C97U is lower in “polymerase ribozyme fitness (log ratio)” value: -1.78 for the first, -2.35 for the second.

Going from G52U C94U U106A A119G to G52U G57U G128C, the “polymerase ribozyme fitness (log ratio)” value falls from -0.397 to -4.79.

First: G52U G58A C79G C85A G107U G113A
Second: G52U G60A
The “polymerase ribozyme fitness (log ratio)” value of the first is lower: -6.66 for the first, -0.943 for the second.

Compared with G52U G60A C104U C115G A121C, G52U G60C is higher in “polymerase ribozyme fitness (log ratio)” value: -4.03 for the first, -0.445 for the second.

Going from G52U G61A to G52U G61C C123A, the “polymerase ribozyme fitness (log ratio)” value rises from -1.14 to -0.217.

Compared with G52U G61C U130G, G52U G61U is higher in “polymerase ribozyme fitness (log ratio)” value: -1.58 for the first, -0.708 for the second.

Compared with G52U G63A C101G C114G, G52U G63A G120U is higher in “polymerase ribozyme fitness (log ratio)” value: -6.25 for the first, -1.08 for the second.

Compared with G52U G63U, G52U G69U C79A U87C U129G is lower in “polymerase ribozyme fitness (log ratio)” value: -0.651 for the first, -1.06 for the second.

Going from G52U G69U G71C to G52U G77U A90U A121U U130A, the “polymerase ribozyme fitness (log ratio)” value rises from -1.06 to -0.805.

First: G52U G77U G117U U126C
Second: G52U G93U
The “polymerase ribozyme fitness (log ratio)” value of the first is lower: -5.18 for the first, -1.93 for the second.

Going from G52U G113U to G52U G117A, the “polymerase ribozyme fitness (log ratio)” value rises from -3.87 to -1.81.

Compared with G52U G117U U133A, G52U U81A is higher in “polymerase ribozyme fitness (log ratio)” value: -3.76 for the first, -2.79 for the second.

Going from G52U U106A to G52U U109C A118U, the “polymerase ribozyme fitness (log ratio)” value falls from -0.189 to -6.47.

G52U U112A U126G and G52U U125A are within 0.2 log units of each other in “polymerase ribozyme fitness (log ratio)” value: -0.97 for the first, -0.984 for the second.

Going from G52U U125G to G52U U129G, the “polymerase ribozyme fitness (log ratio)” value falls from -1.12 to -2.57.

Going from C53A to C53A A68G, the “polymerase ribozyme fitness (log ratio)” value falls from 0.0557 to -2.61.

Compared with C53A A84U U125A, C53A A100G G113A G120C is lower in “polymerase ribozyme fitness (log ratio)” value: -1.27 for the first, -4.41 for the second.

Going from C53A A105U to C53A C56A A90G C97A U132C, the “polymerase ribozyme fitness (log ratio)” value falls from -2.72 to -3.46.

Compared with C53A C56A G58C A68U C80A, C53A C56U is higher in “polymerase ribozyme fitness (log ratio)” value: -6.56 for the first, -0.113 for the second.

Compared with C53A C70U U78C C86G, C53A C72G U92G is lower in “polymerase ribozyme fitness (log ratio)” value: -1.12 for the first, -2.94 for the second.

First: C53A C73A
Second: C53A C80U U106A G135U
The “polymerase ribozyme fitness (log ratio)” value of the first is higher: -0.0116 for the first, -3.96 for the second.

Compared with C53A C82G A84G, C53A C85G is lower in “polymerase ribozyme fitness (log ratio)” value: -0.378 for the first, -1.17 for the second.

Compared with C53A G60A C94A G120A, C53A G60C is lower in “polymerase ribozyme fitness (log ratio)” value: 0.047 for the first, -2.24 for the second.

First: C53A G60U
Second: C53A G61C G110A A119U U133A
The “polymerase ribozyme fitness (log ratio)” value of the first is higher: -0.129 for the first, -4.96 for the second.

First: C53A G61C U116C
Second: C53A G61U C82G A84G
The “polymerase ribozyme fitness (log ratio)” value of the first is lower: -5.85 for the first, -0.925 for the second.

First: C53A G63A U78C
Second: C53A G63A U78C G110U
The “polymerase ribozyme fitness (log ratio)” value of the first is higher: -2.46 for the first, -3.53 for the second.

First: C53A G69C
Second: C53A G71A
The “polymerase ribozyme fitness (log ratio)” value of the first is lower: -1.38 for the first, -0.89 for the second.

Compared with C53A G71A C85A G135U, C53A G71A C124A is higher in “polymerase ribozyme fitness (log ratio)” value: -4.02 for the first, 0.149 for the second.

Compared with C53A G71C C85A G117A U125G, C53A G93C is higher in “polymerase ribozyme fitness (log ratio)” value: -5.65 for the first, -0.396 for the second.

First: C53A G113C
Second: C53A G117A
The “polymerase ribozyme fitness (log ratio)” value of the first is lower: -2.28 for the first, 0.856 for the second.

First: C53A G120C
Second: C53A G120U G122C U125A
The “polymerase ribozyme fitness (log ratio)” value of the first is higher: 0.974 for the first, -0.563 for the second.

First: C53A G127U
Second: C53A G127U U129A
The “polymerase ribozyme fitness (log ratio)” value of the first is higher: -0.16 for the first, -0.623 for the second.

Compared with C53A G135U, C53A U55A C70U is higher in “polymerase ribozyme fitness (log ratio)” value: -0.659 for the first, -0.287 for the second.

Compared with C53A U59C A105U, C53A U78C C82U C102U is higher in “polymerase ribozyme fitness (log ratio)” value: -2.61 for the first, -0.997 for the second.
